Assay results taken from PMC3061437.

Biological target: eukaryotic elongation factor-1 A1 (eEF1A1), purified (UniProt P68104)
Sequence of UniProt P68104 (P68104 whole entry): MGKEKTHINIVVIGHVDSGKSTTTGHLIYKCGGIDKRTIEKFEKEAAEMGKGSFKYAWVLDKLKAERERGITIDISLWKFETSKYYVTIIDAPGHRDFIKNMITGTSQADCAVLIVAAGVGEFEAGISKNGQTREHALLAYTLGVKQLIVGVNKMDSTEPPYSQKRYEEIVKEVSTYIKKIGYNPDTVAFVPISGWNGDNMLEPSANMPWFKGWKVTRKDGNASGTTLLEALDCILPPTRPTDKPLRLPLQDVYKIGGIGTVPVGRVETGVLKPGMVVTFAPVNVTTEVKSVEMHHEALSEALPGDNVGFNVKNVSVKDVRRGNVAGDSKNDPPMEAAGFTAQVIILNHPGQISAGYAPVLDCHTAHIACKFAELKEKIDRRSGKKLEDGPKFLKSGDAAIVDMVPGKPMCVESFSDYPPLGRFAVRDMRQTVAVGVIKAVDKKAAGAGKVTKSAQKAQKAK

| Substance | repression of translation of Luc-BAT in an IVT assay [%] |
| --- | --- |
| hnRNP E1 KH1 domain expressed as GST-fusion product (domain or fragment) | 70 |
| recombinant full-length (FL) hnRNP E1 expressed as a GST-fusion product (from UniProt Q15365 1-356) (natural protein) | > 80 |
